The text below walks through data of US20080057516A1 (published 2008).

In experiment [1] the target is T1, Syndecan-3 ectodomain purified from early postnatal rat brain (rat, UniProt P33671 45-387, carries natural heparan sulfate (HS) side chains; attachment residues not stated).
T1 construct: extracellular domain; Native proteoglycan; also called S3; extracellular domain of syndecan-3
The experiment can be described thus: SPR (IAsys), GFL immobilised, syndecan-3 ectodomain in solution; Kd = kdis/ka. The method, then:
(§1) The affinities of GFLs for heparin and heparin-like molecules (e.g. syndecan-3) were determined by plasmon surface resonance using the IAsys system (Affinity Sensors, Cambridge, UK). Planar aminosilane cuvettes (Affinity Sensors) were used for protein coupling to avoid problems with mass transport, which occur frequently with matrix surfaces. In the initial approach, heparin-BSA was immobilized to the cuvette surface using the manufacturer's instructions and different ligand concentrations were used to determine association (kₐ) and dissociation (kdis) rates using the IAsys Fastfit software. The dissociation constant Kd was determined from the binding dynamics as […], or from equilibrium response (R) using a simple Langmuir fit: R=(Rₘₐₓ*C)/(Kd+C), where C is the ligand concentration. […] The dissociation constants were determined from binding dynamics and equilibrium response. The same cuvettes were used to test binding of heparan sulfate proteoglycan syndecan-3, which was purified as an ectodomain from early postnatal rat brains by HB-GAM affinity chromatography (Raulo et al., 1994).
(§2) Binding was analyzed using IAsys cuvettes with immobilized heparin-BSA or GFLs. The dissociation constant Kd was determined from dynamics of association and dissociation (Kd=kdis/kₐ), or from equilibrium response R (R=(Rₘₐₓ*C)/(Kd+C), where C is ligand concentration).

For experiment [2], the target named is T1, Syndecan-3 ectodomain purified from …. The experiment in a line: SPR (IAsys), GFL immobilised on aminosilane cuvette, syndecan-3 ectodomain in solution. The method, then: as §1, §2
For experiment [3] the target is unchanged. The experiment can be described thus: SPR (IAsys), GFL immobilised, syndecan-3 ectodomain in solution; equilibrium response. The method, then:
as §1, §2

Experiment [4] shares this target. The experiment can be described thus: SPR (IAsys optical biosensor): ARTN immobilized on the aminosilane cuvette, syndecan-3 ectodomain (S3) in solution at 0 to about 95 nM. Kd from the equilibrium response (insert of the ARTN panel). As to the method: as §1
Experiment [5] shares this target. The experiment can be described thus: SPR (IAsys), GFL immobilised, syndecan-3 ectodomain in solution; equilibrium response; equilibrium response only; syndecan-3 concentrations limiting, dynamics could not be fit.

T1 sequence (P33671 45-387): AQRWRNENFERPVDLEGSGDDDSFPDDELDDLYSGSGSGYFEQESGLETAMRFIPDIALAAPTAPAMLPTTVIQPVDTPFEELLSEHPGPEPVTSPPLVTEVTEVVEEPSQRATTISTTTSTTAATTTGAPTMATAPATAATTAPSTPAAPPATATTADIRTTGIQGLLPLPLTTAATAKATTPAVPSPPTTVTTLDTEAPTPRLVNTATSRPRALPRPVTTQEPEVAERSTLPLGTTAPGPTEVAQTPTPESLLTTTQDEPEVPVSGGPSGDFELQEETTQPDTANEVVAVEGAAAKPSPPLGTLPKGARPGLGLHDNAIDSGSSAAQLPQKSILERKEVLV

B1: Glial cell line-derived neurotrophic factor (GDNF) (ligand, UniProt P39905 78-211, looked up)
chain: SPDKQMAVLPRRERNRQAAAANPENSRGKGRRGQRGKNRGCVLTAIHLNVTDLGLGYETKEELIFRYCSGSCDAAETTYDKILKNLSRNRRLVSDKVGQACCRPIAFDDDLSFLDDNLVYHILRKHSAKRCGCI
notes: Immobilised on an aminosilane cuvette for SPR, or coated on plastic, glass or filters for the cell assays; also called wtGDNF; unlabeled (Cold) GDNF
As to B1, the figures for the Kd in experiment [1] and in experiment [3] were 11.5 nM and 12 nM, respectively. The same molecule gave an off-rate (koff) in experiment [2] of 0.015 s⁻¹. In experiment [2], this molecule registered an association rate constant (kon) of 1.3e+06 M⁻¹ s⁻¹.

B2: Artemin (ARTN) (ligand, UniProt Q5T4W7 108-220, looked up)
chain: AGGPGSRARAAGARGCRLRSQLVPVRALGLGHRSDELVRFRFCSGSCRRARSPHDLSLASLLGAGALRPPPGSRPVSQPCCRPTRYEAVSFMDVNSTWRTVDRLSATACGCLG
As for B2, the values for the equilibrium dissociation constant (Kd) in experiment [1], in experiment [4] and in experiment [3] were 53.9 nM, 21.1 nM and 21.2 nM, respectively. The off-rate constant (koff) in experiment [2] worked out at 0.034 s⁻¹. The molecule also gave a kon in experiment [2] of 630000 M⁻¹ s⁻¹.

B3: Neurturin (NRTN) (ligand, UniProt Q99748 96-197, looked up)
chain: ARLGARPCGLRELEVRVSELGLGYASDETVLFRYCAGACEAAARVYDLGLRRLRQRRRLRRERVRAQPCCRPTAYEDEVSFLDAHSRYHTVHELSARECACV
Regarding B3, the values for the equilibrium dissociation constant (Kd) in experiment [1] and in experiment [3] were 26.3 nM and 28.5 nM, respectively. The molecule further displayed a dissociation rate constant (koff) in experiment [2] of 0.021 s⁻¹. This molecule also yielded an on-rate constant (kon) in experiment [2] of 750000 M⁻¹ s⁻¹.

B4: Persephin (PSPN) (ligand, UniProt O60542 61-156, looked up)
chain: ALSGPCQLWSLTLSVAELGLGYASEEKVIFRYCAGSCPRGARTQHGLALARLQGQGRAHGGPCCRPTRYTDVAFLDDRHRWQRLPQLSAAACGCGG
Consider B4, for which the equilibrium dissociation constant (Kd) in experiment [5] was more than 70 nM.
